# Laboratory results from PMC8055034.
# Assays:
# [1] = target: 1PGE-THIVC SOSIP.664 gp140 Env trimer (HIV-1 clade C); test: negative-stain EM; SEC-purified trimers at 0.01-0.03 mg/ml on carbon-coated grids, 2% uranyl formate, 2D class averages
# CD4-IgG2 = CD4-IgG2 (UniProt P01730); test: D-7324 capture ELISA; conditions: value read at the highest concentration, CD4-IgG2 10 µg/ml; parent: est. 2.5; read off a plot
# PGT145 = test: D-7324 capture ELISA; conditions: value read at the highest antibody concentration, PGT145 10 µg/ml; parent: est. 1.3; read off a plot
# VRC01 = test: D-7324 capture ELISA; conditions: value read at the highest antibody concentration, VRC01 10 µg/ml; parent: est. 2.8; read off a plot
Substance,stoichiometry N [1],response (CD4-IgG2) [A450],response (PGT145) [A450],response (VRC01) [A450]
1PGE-THIVC SOSIP.664 gp140 Env trimer (complex),3,–,–,–
1PGE-THIVC SOSIP.664 gp140 Env trimer N279E,–,0.98,1.3,0.93
